Test results reported in US20240262923A1 (Sanofi, published 2024).

B1: MC1 (conditionally-active, masked Optimized Construct #3; MM1 and cleavable linker #1) (bispecific antibody)
heavy: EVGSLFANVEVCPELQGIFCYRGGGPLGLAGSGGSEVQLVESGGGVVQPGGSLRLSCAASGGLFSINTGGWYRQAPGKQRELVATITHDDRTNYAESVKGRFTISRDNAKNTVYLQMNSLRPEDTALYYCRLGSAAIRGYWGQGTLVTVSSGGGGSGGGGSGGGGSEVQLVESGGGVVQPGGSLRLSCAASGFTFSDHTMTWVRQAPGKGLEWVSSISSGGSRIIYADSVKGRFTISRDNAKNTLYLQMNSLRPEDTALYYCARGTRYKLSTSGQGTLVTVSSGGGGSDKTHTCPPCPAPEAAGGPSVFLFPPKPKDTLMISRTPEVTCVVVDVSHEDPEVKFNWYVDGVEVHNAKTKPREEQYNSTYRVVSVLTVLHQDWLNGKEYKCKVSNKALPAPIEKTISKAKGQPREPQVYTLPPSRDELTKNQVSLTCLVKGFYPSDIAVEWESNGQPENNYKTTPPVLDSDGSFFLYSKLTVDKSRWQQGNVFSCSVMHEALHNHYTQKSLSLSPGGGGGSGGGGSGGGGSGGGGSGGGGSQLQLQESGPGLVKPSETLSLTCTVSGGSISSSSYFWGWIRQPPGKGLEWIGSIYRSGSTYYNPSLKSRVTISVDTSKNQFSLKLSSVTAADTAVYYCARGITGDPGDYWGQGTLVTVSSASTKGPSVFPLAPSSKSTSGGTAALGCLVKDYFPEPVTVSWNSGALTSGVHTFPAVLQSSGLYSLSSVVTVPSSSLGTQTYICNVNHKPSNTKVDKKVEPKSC
light: EIVLTQSPATLSLSPGERATLSCGASQSVPINFLAWYQQKPGLAPRLLIYEASSRHTGIPDRFSGSGSGTDFTLTISRLEPEDFAVYYCGQYGSSPYTFGQGTKLEIKRTVAAPSVFIFPPSDEQLKSGTASVVCLLNNFYPREAKVQWKVDNALQSGNSQESVTEQDSKDSTYSLSSTLTLSKADYEKHKVYACEVTHQGLSSPVTKSFNRGEC
B2: MC3 (conditionally-active, masked Optimized Construct #3; MM1 and cleavable linker #2) (bispecific antibody)
heavy: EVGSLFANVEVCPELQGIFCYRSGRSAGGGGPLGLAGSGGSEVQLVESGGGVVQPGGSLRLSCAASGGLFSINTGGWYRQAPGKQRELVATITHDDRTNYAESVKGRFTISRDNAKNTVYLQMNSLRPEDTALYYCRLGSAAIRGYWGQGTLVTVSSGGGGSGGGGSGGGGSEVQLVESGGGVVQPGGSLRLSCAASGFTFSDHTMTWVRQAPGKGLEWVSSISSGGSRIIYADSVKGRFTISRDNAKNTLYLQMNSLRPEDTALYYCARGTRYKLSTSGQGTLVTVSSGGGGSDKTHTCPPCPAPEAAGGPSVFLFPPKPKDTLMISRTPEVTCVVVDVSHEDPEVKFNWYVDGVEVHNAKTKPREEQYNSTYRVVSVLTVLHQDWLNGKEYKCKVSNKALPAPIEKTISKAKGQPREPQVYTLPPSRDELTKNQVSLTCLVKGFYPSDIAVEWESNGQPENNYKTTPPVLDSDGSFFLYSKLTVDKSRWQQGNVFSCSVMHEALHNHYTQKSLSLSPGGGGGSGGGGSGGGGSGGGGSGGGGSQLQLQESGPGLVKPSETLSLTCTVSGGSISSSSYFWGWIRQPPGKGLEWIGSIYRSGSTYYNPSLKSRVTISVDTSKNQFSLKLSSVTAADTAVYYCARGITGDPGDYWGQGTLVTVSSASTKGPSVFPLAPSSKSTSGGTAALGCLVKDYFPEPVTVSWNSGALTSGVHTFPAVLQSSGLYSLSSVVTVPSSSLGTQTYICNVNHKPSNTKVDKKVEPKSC
light: B1 light
B3: MC4 (conditionally-active, masked Optimized Construct #3; MM2 and cleavable linker #2) (bispecific antibody)
heavy: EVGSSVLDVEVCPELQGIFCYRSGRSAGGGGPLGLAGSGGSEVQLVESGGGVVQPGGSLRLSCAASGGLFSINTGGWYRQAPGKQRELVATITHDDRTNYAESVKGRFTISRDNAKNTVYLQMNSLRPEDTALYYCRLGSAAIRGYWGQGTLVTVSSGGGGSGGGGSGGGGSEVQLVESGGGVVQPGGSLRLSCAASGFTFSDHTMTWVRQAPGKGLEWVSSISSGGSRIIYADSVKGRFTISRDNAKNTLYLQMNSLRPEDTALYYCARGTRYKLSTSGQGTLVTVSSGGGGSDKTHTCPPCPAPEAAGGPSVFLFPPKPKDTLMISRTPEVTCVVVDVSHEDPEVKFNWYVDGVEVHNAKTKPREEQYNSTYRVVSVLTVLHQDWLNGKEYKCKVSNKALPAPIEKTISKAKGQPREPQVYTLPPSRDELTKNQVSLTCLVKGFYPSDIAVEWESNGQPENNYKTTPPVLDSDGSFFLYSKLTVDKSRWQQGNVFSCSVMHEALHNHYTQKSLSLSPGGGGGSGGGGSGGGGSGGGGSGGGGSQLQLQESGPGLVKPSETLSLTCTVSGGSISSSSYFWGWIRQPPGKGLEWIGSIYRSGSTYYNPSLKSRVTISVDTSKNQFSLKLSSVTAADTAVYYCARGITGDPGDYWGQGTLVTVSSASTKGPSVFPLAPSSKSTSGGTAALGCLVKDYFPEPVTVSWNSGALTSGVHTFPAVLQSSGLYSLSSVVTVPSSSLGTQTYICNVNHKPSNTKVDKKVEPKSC
light: B1 light
B4: MC2 (conditionally-active, masked Optimized Construct #3; MM2 and cleavable linker #1) (bispecific antibody)
heavy: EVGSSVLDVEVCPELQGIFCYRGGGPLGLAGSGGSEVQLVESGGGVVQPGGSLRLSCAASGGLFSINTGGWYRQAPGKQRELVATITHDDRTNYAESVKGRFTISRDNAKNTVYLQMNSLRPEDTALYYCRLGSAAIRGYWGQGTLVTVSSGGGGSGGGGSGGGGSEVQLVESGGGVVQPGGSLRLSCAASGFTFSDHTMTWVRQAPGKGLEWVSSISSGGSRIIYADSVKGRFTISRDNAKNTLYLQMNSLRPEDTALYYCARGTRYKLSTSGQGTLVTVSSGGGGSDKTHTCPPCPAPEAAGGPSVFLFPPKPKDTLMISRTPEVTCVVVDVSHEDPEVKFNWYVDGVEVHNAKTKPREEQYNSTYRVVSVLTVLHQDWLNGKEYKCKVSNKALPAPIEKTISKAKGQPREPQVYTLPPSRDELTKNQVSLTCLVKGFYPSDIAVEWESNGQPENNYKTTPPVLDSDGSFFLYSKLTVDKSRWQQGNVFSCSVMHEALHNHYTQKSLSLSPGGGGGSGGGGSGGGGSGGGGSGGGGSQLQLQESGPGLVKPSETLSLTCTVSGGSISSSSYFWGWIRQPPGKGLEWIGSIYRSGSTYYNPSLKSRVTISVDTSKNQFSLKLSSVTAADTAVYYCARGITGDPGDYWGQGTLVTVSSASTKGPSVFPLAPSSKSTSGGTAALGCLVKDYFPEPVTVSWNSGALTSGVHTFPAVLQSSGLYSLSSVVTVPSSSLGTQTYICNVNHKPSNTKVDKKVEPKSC
light: B1 light
B5: anti-4-1BB clone #5a VHH, bivalent monoparatopic Fab-like construct (other)
chain 1: QVQLQESGGGWVQPGGSLRLSCAASGFAFRDFTMSWARQAPGERFEWISSINPSGGSQSYLPSVKGRFTISRDNAKNTMFLQMDNLTPEDTAVYFCARGTRYKMSTSGPGTQVTVSS
chain 2: B5 chain 1
notes: not shown: human CL (lambda) constant domain, tag if any; human IgG1 CH1 domain, HA and 6-His tags
B6: anti-4-1BB clone #5d VHH, bivalent monoparatopic Fab-like construct (other)
chain 1: QVQLQESGGGLVQPGGSLRLSCVASGFTFANYRMSWVRQAPGKGLEWVSSIKKSGNRTTYSDSVKGRFTISRDNAKNTMFLQMDNLTPEDTAVYFCARGTRYKMSTSGPGTQVTVSS
chain 2: B6 chain 1
notes: as for B5
B7: anti-4-1BB clone #2 VHH (VHH)
VHH: QVQLQESGGGLVQPGGSLRLSCAASGGLFSINTGGWYRQAPGKQRELVATITHDDRTNYAESVKGRFTLSRDNAKNTVYLQMNSLKPEDTAVYYCRLGSAAIRGYWGQGTQVTVSS
B8: anti-4-1BB clone #5 VHH (VHH)
VHH: QVQLQESGGGLVQPGGSLRLSCAASGFTFSDHTMTWVRQAPGKGLEWVSSISSGGSRIIYADSVKGRFTISRDNAKNTLYLQMNNLRPEDTAVYFCARGTRYKMSTSGPGTQVTVSS

target: T1, cynomolgus monkey 4-1BB expressed on 300.19 pre-B cells (cynomolgus monkey, UniProt A9YYE7 24-254); test: flow cytometry on 300.19 pre-B cells, cy4-1BB against h4-1BB
T1 construct: whole, on cells; also called cy4-1BB; Pre-B cy4-1BB
T1 sequence (A9YYE7 entry or part of it): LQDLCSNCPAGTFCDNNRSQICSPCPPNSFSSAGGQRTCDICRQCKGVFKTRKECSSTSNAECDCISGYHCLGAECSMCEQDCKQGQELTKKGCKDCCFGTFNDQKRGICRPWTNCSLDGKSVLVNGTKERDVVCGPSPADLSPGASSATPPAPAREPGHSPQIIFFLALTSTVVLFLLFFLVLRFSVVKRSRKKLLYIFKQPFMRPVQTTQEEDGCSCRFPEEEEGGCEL

| Binder | Ratio EC50 cy/h [fold] |
| --- | --- |
| B1 | 0.07 |
| B2 | 0.23 |
| B3 | 1.01 |
| B4 | 2.44 |

target: T2, human PD-1 expressed on cells (300.19 pre-B cells, PD-1 NFAT-luc2 Jurkat cells, primary T-cells) (human, UniProt Q15116 25-288); test: flow cytometry on PD-1+ Jurkat T-cells
T2 construct: GenBank NP 005009.2 printed; also called hPD-1; Pre-B hPD-1
T2 sequence (Q15116 25-288 limits assumed): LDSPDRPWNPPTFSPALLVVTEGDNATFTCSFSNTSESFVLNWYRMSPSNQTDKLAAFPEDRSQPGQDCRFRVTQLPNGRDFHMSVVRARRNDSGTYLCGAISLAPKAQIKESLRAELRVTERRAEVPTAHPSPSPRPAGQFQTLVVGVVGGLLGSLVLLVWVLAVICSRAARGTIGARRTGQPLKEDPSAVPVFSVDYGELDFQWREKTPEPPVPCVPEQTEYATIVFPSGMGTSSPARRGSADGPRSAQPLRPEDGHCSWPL

| Binder | EC50 [nM] |
| --- | --- |
| B1 | 0.7 |
| B2 | 0.89 |
| B3 | 0.72 |
| B4 | 0.78 |

target: T2, human PD-1 expressed on cells (300.19 …); test: cell-based or functional assay

| Binder | EC50 value (nM), PD-1 reporter assay [nM] |
| --- | --- |
| B1 | 2.43 |
| B2 | 2.62 |
| B3 | 2.81 |
| B4 | 2.54 |

target: T3, human His-tagged 4-1BB recombinant protein (human, UniProt Q07011 24-186); test: ELISA binding on 4-1BB-his, bivalent monoparatopic Fab-like constructs
T3 construct: also called human 4-1BB; h4-1BB; not shown: His tag

| Binder | EC50 (read off the curve) [nM] | binding result |
| --- | --- | --- |
| B5 | ~0.5 |  |
| B6 |  | binds |

target: T4, cynomolgus monkey PD-1 (SPR analyte) (cynomolgus monkey, UniProt B0LAJ3 25-170); test: SPR (Biacore 8K), binder captured on anti-Fc chip, target as analyte, 1:1 model
T4 construct: also called cyPD-1
T4 sequence (B0LAJ3 entry or part of it limits assumed): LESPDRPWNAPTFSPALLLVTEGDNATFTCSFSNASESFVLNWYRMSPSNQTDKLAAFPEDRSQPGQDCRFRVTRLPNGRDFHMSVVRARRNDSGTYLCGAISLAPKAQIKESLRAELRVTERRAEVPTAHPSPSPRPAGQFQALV

| Binder | Kd [nM] |
| --- | --- |
| B1 | 14.9 |
| B2 | 13.4 |
| B3 | 18.3 |
| B4 | 17.3 |

target: T5, human PD-1 (SPR analyte) (human, UniProt Q15116 25-167, limits assumed); test: as above
T5 construct: Soluble analyte in SPR; also called hPD-1
T5 sequence (Q15116 25-167 limits assumed): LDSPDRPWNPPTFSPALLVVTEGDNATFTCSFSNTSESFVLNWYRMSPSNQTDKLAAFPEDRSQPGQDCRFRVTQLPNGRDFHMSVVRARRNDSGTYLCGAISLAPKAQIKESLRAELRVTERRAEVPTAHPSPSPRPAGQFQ

| Binder | Kd [nM] |
| --- | --- |
| B1 | 6.42 |
| B2 | 6.73 |
| B3 | 6.82 |
| B4 | 7.73 |

target: T6, extracellular domain of human 4-1BB (amino acid residues 24-186 of SEQ ID NO: 13) (human, UniProt Q07011 24-186); test: X-ray crystallography of the complex
T6 construct: Used for X-ray crystallography

| Binder | binding result |
| --- | --- |
| B7 | binds |
| B8 | binds |

target: T1, cynomolgus monkey 4-1BB expressed on …; test: flow cytometry on 300.19 pre-B cells

| Binder | EC50 [nM] |
| --- | --- |
| B1 | 6.24 |
| B2 | 5.9 |
| B3 | 9.81 |
| B4 | 16.6 |

target: T1, cynomolgus monkey 4-1BB expressed on …; test: flow cytometry on 300.19 pre-B cells, cy4-1BB, against Optimized Construct #3

| Binder | masking efficacy (masked EC50/naked EC50) [fold] |
| --- | --- |
| B1 | 7 |
| B2 | 6 |
| B3 | 11 |
| B4 | 18 |

target: T4, cynomolgus monkey PD-1 (SPR analyte); test: SPR, KD on cyPD-1 against KD on hPD-1

| Binder | Ratio KD cyno/human [fold] |
| --- | --- |
| B1 | 2.3 |
| B2 | 2 |
| B3 | 2.7 |
| B4 | 2.2 |

target: T7, cynomolgus monkey PD-1 expressed on 300.19 pre-B cells (cynomolgus monkey, UniProt B0LAJ3 25-288); test: flow cytometry on 300.19 pre-B cells, cyPD-1 against hPD-1
T7 construct: also called cyPD-1; Pre-B cyPD-1
T7 sequence (B0LAJ3 entry or part of it limits assumed): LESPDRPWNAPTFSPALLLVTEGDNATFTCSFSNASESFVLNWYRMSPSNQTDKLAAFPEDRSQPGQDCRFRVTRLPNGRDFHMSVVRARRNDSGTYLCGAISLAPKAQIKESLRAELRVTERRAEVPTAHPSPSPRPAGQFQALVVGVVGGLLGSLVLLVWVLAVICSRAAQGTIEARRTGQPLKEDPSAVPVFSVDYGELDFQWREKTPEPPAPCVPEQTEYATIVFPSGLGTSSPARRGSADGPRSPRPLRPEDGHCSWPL

| Binder | Ratio EC50 cy/h [fold] |
| --- | --- |
| B1 | 0.99 |
| B2 | 0.8 |
| B3 | 1.79 |
| B4 | 0.51 |

target: T2, human PD-1 expressed on cells (300.19 …); test: flow cytometry on 300.19 pre-B cells

| Binder | EC50 [nM] |
| --- | --- |
| B1 | 1.65 |
| B2 | 1.76 |
| B3 | 2.68 |
| B4 | 2.97 |

target: T7, cynomolgus monkey PD-1 expressed on …; test: flow cytometry on 300.19 pre-B cells

| Binder | EC50 [nM] |
| --- | --- |
| B1 | 1.67 |
| B2 | 1.4 |
| B3 | 4.8 |
| B4 | 1.5 |
